According to PMC4087533 (Nature, 2014):

B1: ammonia channel AmtB from E. coli (tag-removed) (natural protein)
chain: GASVADKADNAFMMICTALVLFMTIPGIALFYGGLIRGKNVLSMLTQVTVTFALVCILWVVYGYSLAFGEGNNFFGNINWLMLKNIELTAVMGSIYQYIHVAFQGSFACITVGLIVGALAERIRFSAVLIFVVVWLTLSYIPIAHMVWGGGLLASHGALDFAGGTVVHINAAIAGLVGAYLIGKRVGFGKEAFKPHNLPMVFTGTAILYIGWFGFNAGSAGTANEIAALAFVNTVVATAAAILGWIFGEWALRGKPSLLGACSGAIAGLVGVTPACGYIGVGGALIIGVVAGLAGLWGVTMLKRLLRVDDPCDVFGVHGVCGIVGCIMTGIFAASSLGGVGFAEGVTMGHQLLVQLESIAITIVWSGVVAFIGYKLADLTVGLRVPEEQEREGLDVNSHGENAYNA

Assays:
[1] = target: mechanosensitive channel of large conductance (MscL) from Mycobacterium tuberculosis (tag-removed) (Mycobacterium tuberculosis); test: native MS
native MS = target: the molecule itself; test: native MS

| Molecule | stoichiometry N [1] | stoichiometry N (native MS) |
| --- | --- | --- |
| mechanosensitive channel of large conductance (MscL) from Mycobacterium tuberculosis (tag-removed) (natural protein) | 5 | – |
| B1 | – | 3 |
